Experimental data published in the supplement of paper PMC10724198.
± gives the standard deviation of the averaged measurements.

Each sequence was assayed on Saccharomyces cerevisiae (assay: protein stability index of tFT-peptide fusion (C-terminal peptide) (PSI (0-1 scale)); higher = more stable (slower turnover)). Settings: genetic background: wild type; temperature: 30 C.
Experimental: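 Multiplexed protein stability (MPS) profiling in S. cerevisiae. Random 12-aa peptides (tFT-X12 library) are fused to the C-terminus of a sfGFP-mCherry tandem fluorescent timer, after mCherry and a GGGS linker. Cells are FACS-sorted into 8 mCherry/sfGFP bins and deep-sequenced. The protein stability index (PSI) is the read-weighted bin average, scaled from 0 (unstable) to 1 (stable). Only peptides with >10 reads are reported; cells were grown at 30 °C in SC-His with glucose.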
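Also: PSI is a weighted mean of sequencing reads over stability bins, variants kept only with over 10 reads, mCherry proximal and sfGFP distal, peptide attached via GGGS linker.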

| Sequence | protein stability index |
| --- | --- |
| AADVALQFKPRT | 0.658 ± 0.027 |
| AAFHSSSAFFFN | 0.718 ± 0.019 |
| AAGAGAPRRPLL | 0.683 ± 0.02 |
| AAGGASRHLSGS | 0.71 ± 0.09 |
| AAIVVRLCSLLR | 0.593 ± 0.0091 |
| AALSNRGIHWWK | 0.732 ± 0.018 |
| AAPGMIFRDPAQ | 0.739 ± 0.18 |
| AAPPPRRPCPPL | 0.678 ± 0.038 |
| AAQRGSTMARGG | 0.704 ± 0.064 |
| AARRPARACGGQ | 0.632 ± 0.025 |
| AAWSGGGAGCWT | 0.708 ± 0.041 |
| ACLGVSTPSLGI | 0.672 ± 0.027 |
| ACLIHWVVSGAR | 0.677 ± 0.016 |
| ACPCTLCMALSR | 0.6476 ± 0.0014 |
| ACREVAGAPGGL | 0.671 ± 0.035 |
| ACVRVVRLGCGW | 0.616 ± 0.063 |
| ACWGCGVGRGEV | 0.814 ± 0.12 |
| ADKNQQTVNWRR | 0.6956 ± 0.0019 |
| ADLPALGSCGSY | 0.631 ± 0.013 |
| ADPPLFYPPSHT | 0.69 ± 0.021 |
| ADWGSRRPSRCP | 0.68915 ± 0.00051 |
| AEAFFRIVRTVR | 0.721 ± 0.034 |
| AEAKAVKSVSVR | 0.638 ± 0.042 |
| AEARTRYVPRPR | 0.686 ± 0.02 |
| AEEAEVAGPRHC | 0.777 ± 0.18 |
| AEFMRGVFKVSC | 0.6816 ± 0.0036 |

| Sequence | protein stability index |
| --- | --- |
| AELSTRPPAPPL | 0.715 ± 0.096 |
| AERSVRGTTPGG | 0.632 ± 0.051 |
| AETESASRCLHW | 0.776 ± 0.026 |
| AEWGGSTGGCWG | 0.722 ± 0.15 |
| AFASVLPSSLSS | 0.641 ± 0.085 |
| AFDPGLPPRRSD | 0.755 ± 0.011 |
| AFGRLNTWFCFP | 0.719 ± 0.037 |
| AFLVGDVFGRLL | 0.602 ± 0.016 |
| AFMPGLLGDTYE | 0.662 ± 0.022 |
| AFMVFCRSLLAP | 0.684 ± 0.014 |
| AFRCGGGPGDFA | 0.6513 ± 0.0027 |
| AFVLTSRVFFPL | 0.721 ± 0.053 |
| AFWLPAAVPLIF | 0.584 ± 0.022 |
| AFYFGQFEFWRC | 0.698 ± 0.034 |
| AGAATGAGGLQG | 0.672 ± 0.037 |
| AGCGGIWGVWVL | 0.701 ± 0.072 |
| AGEERWGGCLTG | 0.653 ± 0.021 |
| AGGAEAVRRAGG | 0.675 ± 0.019 |
| AGGGGGTRVHWR | 0.682 ± 0.013 |
| AGGGPGLEARSL | 0.612 ± 0.017 |
| AGGGWAVQVGMG | 0.684 ± 0.042 |
| AGGPGWGALVGA | 0.645 ± 0.047 |
| AGGRGGGGGGDA | 0.663 ± 0.0071 |
| AGGSGGGRDRLV | 0.694 ± 0.024 |
| AGGSVGEAGSEG | 0.649 ± 0.026 |
| AGGWLGAEGCGG | 0.78 ± 0.033 |

| Sequence | protein stability index |
| --- | --- |
| AGICLRSFRCFW | 0.672 ± 0.0079 |
| AGLGGGARQGAL | 0.672 ± 0.024 |
| AGLLFDSPPLLV | 0.725 ± 0.034 |
| AGPPRTAVSPPL | 0.675 ± 0.016 |
| AGQGSISCWSKD | 0.707 ± 0.045 |
| AGRGGSPRFVGR | 0.657 ± 0.053 |
| AGRGRAIGAGFS | 0.649 ± 0.054 |
| AGRRGVNGGGWG | 0.686 ± 0.039 |
| AGRRTGSRESEQ | 0.612 ± 0.061 |
| AGSAGKWCWCGG | 0.711 ± 0.039 |
| AGSALSSAYTLM | 0.703 ± 0.13 |
| AGSSFDLGSGYS | 0.724 ± 0.083 |
| AGSSGVRLSEFP | 0.671 ± 0.11 |
| AGSYERFSRGHR | 0.688 ± 0.034 |
| AGVLTRGNCCGG | 0.6885 ± 0.005 |
| AGVPCLSVPPLG | 0.683 ± 0.031 |
| AGVTRALSVFLL | 0.54 ± 0.043 |
| AGWCWVWGVELV | 0.687 ± 0.04 |
| AGWGGIWGLWVL | 0.715 ± 0.11 |
| AGYEEWVRDARV | 0.73 ± 0.0075 |
| AGYENKAENKSV | 0.656 ± 0.011 |
| AGYGGILRSRGG | 0.698 ± 0.059 |
| AHMAQQNEQRVK | 0.748 ± 0.071 |
| AHQRSRRPKPSR | 0.65 ± 0.072 |
| AHSPPTRISPTH | 0.75 ± 0.097 |
| AHVLQRVRLLSR | 0.618 ± 0.023 |

| Sequence | protein stability index |
| --- | --- |
| AIACYLGLTSYP | 0.647 ± 0.021 |
| AIAGSLSYCWDD | 0.678 ± 0.022 |
| AIANIIERFTLL | 0.63 ± 0.066 |
| AILSDGLTHWGL | 0.736 ± 0.058 |
| AIPAVRFCRTLR | 0.643 ± 0.055 |
| AIRENISIRLNC | 0.482 ± 0.026 |
| AKDSVDYKEGES | 0.6602 ± 0.0041 |
| AKEERKVIRKMK | 0.659 ± 0.063 |
| AKETSINKKALI | 0.6903 ± 0.0047 |
| AKFERRTIGCSA | 0.605 ± 0.0042 |
| AKKKKKKIKTKH | 0.8 ± 0.14 |
| AKSCNSVHALRT | 0.668 ± 0.11 |
| ALASLPPQPHSP | 0.665 ± 0.047 |
| ALCQEFAALEPR | 0.726 ± 0.051 |
| ALFKESMLSTCA | 0.564 ± 0.022 |
| ALLKGASCRTAS | 0.696 ± 0.03 |
| ALLPTLFNSGAV | 0.736 ± 0.015 |
| ALPLLPPHSLPP | 0.617 ± 0.011 |
| ALPLRFSSPGPS | 0.659 ± 0.0068 |
| ALPPLLLLPASP | 0.691 ± 0.0093 |
| ALPPPIPHPLFL | 0.701 ± 0.019 |
| ALPPPLPPPAGP | 0.699 ± 0.077 |
| ALQLLNPSLLKY | 0.786 ± 0.06 |
| ALQVKWRGCLRF | 0.733 ± 0.099 |
| ALRMVRHCPVNT | 0.667 ± 0.029 |
| ALSLARVSSPLF | 0.707 ± 0.06 |

| Sequence | protein stability index |
| --- | --- |
| ALSPAPGTSLMR | 0.69 ± 0.016 |
| ALSRRPAAGDGP | 0.641 ± 0.024 |
| ALTGYYNQYRYE | 0.745 ± 0.025 |
| ALVAGGRGRRLW | 0.692 ± 0.087 |
| ALVAPAYYWGDV | 0.745 ± 0.059 |
| ALVRGGYLFFPP | 0.663 ± 0.026 |
| ALWQADTRSVNN | 0.64 ± 0.097 |
| ALYISLRELACP | 0.548 ± 0.018 |
| AMFFAFSRSLMS | 0.639 ± 0.026 |
| AMLDSPRHLPSA | 0.679 ± 0.041 |
| ANSGSRSSRVVG | 0.643 ± 0.1 |
| APAPSPPPPPPD | 0.562 ± 0.037 |
| APDRPTPSLSSP | 0.7057 ± 0.0053 |
| APFRVALPGVCG | 0.623 ± 0.02 |
| APHPYPPTPPAP | 0.725 ± 0.014 |
| APILLFIEPLPP | 0.5631 ± 0.0037 |
| APLPHAASSLPA | 0.6982 ± 0.0046 |
| APPAHPARSHTP | 0.69 ± 0.019 |
| APPARGTGRASL | 0.738 ± 0.017 |
| APPARSTPPPRP | 0.712 ± 0.045 |
| APPHPPPPLPPP | 0.6366 ± 0.0052 |
| APPLPPLFPPSP | 0.677 ± 0.047 |
| APPLPPPPLDTS | 0.729 ± 0.011 |
| APPPFLCSPFVA | 0.698 ± 0.0092 |
| APPPHPRHPTHS | 0.777 ± 0.089 |
| APPPMPLPLIPL | 0.633 ± 0.04 |

| Sequence | protein stability index |
| --- | --- |
| APPPPHSSHPPP | 0.713 ± 0.027 |
| APPPPLLPHPTP | 0.736 ± 0.028 |
| APPPPPPAPQPP | 0.619 ± 0.067 |
| APPPPPPSPRVP | 0.71 ± 0.047 |
| APPQFPLTPPPP | 0.647 ± 0.011 |
| APPRPPPRPHPP | 0.571 ± 0.063 |
| APPVAKHHAGKD | 0.647 ± 0.016 |
| APRPRHFPTLPS | 0.812 ± 0.077 |
| APRRVAVAGETS | 0.707 ± 0.043 |
| APSPPPDPATPR | 0.672 ± 0.026 |
| APSSLLTPPACI | 0.734 ± 0.083 |
| APSSPRSSTPRP | 0.763 ± 0.085 |
| APTGGTNVRRPE | 0.726 ± 0.024 |
| APTPPPPLSPRS | 0.69 ± 0.034 |
| APTVPQILVRHA | 0.6736 ± 0.0047 |
| APVGLTFNSSLL | 0.7107 ± 0.0032 |
| APYLPACALSSL | 0.706 ± 0.015 |
| APYSGSAMVIPG | 0.713 ± 0.028 |
| AQAPSPGRAPSP | 0.7158 ± 0.0022 |
| AQFFQALATYPI | 0.677 ± 0.022 |
| AQHTGFMRELRR | 0.7278 ± 0.0016 |
| AQPLARTALPRR | 0.775 ± 0.019 |
| AQRKSVLSPDLC | 0.67 ± 0.035 |
| AQTEADGRAHDP | 0.6344 ± 0.0058 |
| ARADIQIACIIE | 0.6418 ± 0.00089 |
